US20260176358A1 (JIANGSU HENGRUI PHARMACEUTICALS, published 2026)
Substitutions are numbered along the chain they refer to. Where two headings read alike, the source gives them in different places. One block for each binder: values may come before it.

Key:
PACAP38 [1] = biological target: T1, PACAP38 (UniProt P18509 132-169, biotinylated in the ELISAs); experiment: cell-based or functional assay
T1 peptide (looked up): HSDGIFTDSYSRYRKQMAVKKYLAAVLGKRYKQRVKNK

VIP = biological target: T2, VIP (UniProt P01282 125-152, biotinylated in the ELISA); experiment: ELISA, biotinylated VIP on streptavidin plate
T2 construct: also called vasoactive intestinal peptide
T2 peptide (looked up): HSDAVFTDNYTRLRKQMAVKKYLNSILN
Procedure: (§1) In this test example, the abilities of the chimeric antibodies and humanized antibodies of C1 #, C9 #, C21 #, and C28 #to bind to human CGRP and rat CGRP were assessed using ELISAs. Plates were coated with […] human CGRP and rat CGRP, respectively, and blocked, and the antibodies, serially diluted, were then added. The plates were incubated for 1 h and washed, and a horseradish peroxidase-labeled anti-human Fc secondary antibody was then added. After incubation, color development was performed. […] The plates were incubated for 1 h and washed, and the antibodies, serially diluted, were then added. The plates were incubated for 1 h and washed, and a horseradish peroxidase-labeled streptavidin secondary antibody was then added. After incubation, color development was performed.

PACAP38 [2] = biological target: T1, PACAP38; experiment: ELISA, biotinylated peptide on streptavidin plate
Procedure: as §1

PACAP27 [3] = biological target: T3, PACAP27 (UniProt P18509 132-158, biotinylated in the ELISAs); experiment: ELISA, biotinylated peptide on streptavidin plate
T3 peptide (looked up): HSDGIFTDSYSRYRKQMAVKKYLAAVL
Procedure: as §1

PACAP38 [4] = biological target: T1, PACAP38; experiment: competition ELISA, biotinylated PACAP38 to coated PAC1-Fc
Procedure: (§2) The plates were incubated for 1 h and washed, and a horseradish peroxidase-labeled streptavidin secondary antibody was then added. After incubation, color development was performed.

PACAP38 [5] = biological target: T1, PACAP38; experiment: competition ELISA, biotinylated PACAP38 to coated VPAC1-Fc
Procedure: as §2

PACAP38 [6] = biological target: T1, PACAP38; experiment: competition ELISA, biotinylated PACAP38 to coated VPAC2-Fc
Procedure: as §2

CGRP = experiment: cell-based or functional assay
PACAP38 [7] = biological target: T1, PACAP38; experiment: cell-based or functional assay
PACAP38 [8] = biological target: T1, PACAP38; experiment: ELISA, antibody on coated anti-human Fc, biotinylated peptide
Procedure: (§3) Plates were coated with 1 μg/mL anti-human Fc and blocked, and the antibodies, serially diluted, were added. […] The plates were incubated for 1 h and washed, and a horseradish peroxidase-labeled streptavidin secondary antibody was then added. After incubation, color development was performed.

PACAP27 [9] = biological target: T3, PACAP27; experiment: as above
Procedure: as §3

rat CGRP = biological target: T4, rat CGRP (rat, UniProt P01256 83-119); experiment: SPR, Biacore 8K, antibody captured on Protein A chip, 1:1 model
T4 peptide (looked up): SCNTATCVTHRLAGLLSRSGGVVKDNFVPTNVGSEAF
Procedure: A Protein A biosensor chip was used to affinity-capture IgG, and a molecule sample was then allowed to flow through the surface of the chip. Reaction signals were detected in real time using a Biacore 8K system to obtain association and dissociation curves. After the dissociation in each experimental cycle was complete, the biosensor chip was washed and regenerated 3 times with 50 mM NaOH. Data fitting was performed using a 1:1 model.

human CGRP = biological target: T5, human CGRP (human, UniProt P06881 83-119); experiment: SPR, Biacore 8K, 25 C, biotinylated antibody on SA chip, 1:1 model
T5 peptide (looked up): T4 peptide (looked up) with S1A, N3D, D25N, E35K
Procedure: First, the test antibodies ([…] for the mAbs and 4 μg/mL for the diabodies), biotinylated (indicated by Biotin-), were each coupled onto an SA biosensor chip. Then samples of the antigen human CGRP were sequentially injected in ascending order for 180 s, followed by dissociation. After the test was finished, fitting was performed using a 1:1 binding model.

B1: P14H1L2 (antibody, human IgG1, kappa, V domains shown)
VH: EVQLVESGGGLVKPGGSLRLSCAASGFAFNNYDMSWVRQAPGKGLEWVATITGGGSYTWYPDSVKGRFTISRDNAKNSLYLQMNSLRAEDTAVYYCARLTGYDQAGAMDYWGQGTTVTVSS
VL: DIVLTQSPDSLAVSLGERATINCKASQSVDYDGDSYMTWYQQKPGQPPKLLIYAASNLDSGIPDRFSGSGSGTDFTLTISSLQAEDVAVYYCQQSNEDPWTFGGGTKVEIKR
IC50, inhibition of cAMP production in SH-SY5Y cells (PACAP38 [1]): 2.37 nM
binding result (VIP): no binding
EC50 (PACAP38 [2]): 0.09 nM
EC50 (PACAP27 [3]): 0.19 nM
IC50 (PACAP38 [4]): 0.45 nM
IC50 (PACAP38 [5]): 0.19 nM
IC50 (PACAP38 [6]): 0.18 nM

B2: P14H1L1 (antibody, human IgG1, kappa, V domains shown)
VH: B1 VH
VL: B1 VL with L4M, I62V
binding result (VIP): no binding
EC50 (PACAP38 [2]): 0.11 nM
EC50 (PACAP27 [3]): 0.19 nM
IC50 (PACAP38 [4]): 0.51 nM
IC50 (PACAP38 [5]): 0.2 nM
IC50 (PACAP38 [6]): 0.21 nM

B4: CP-1 (bispecific antibody)
heavy: EVQLVESGGGLVQPGGSLRLSCAASGFAFNNYDMSWVRQAPGKGLEWVATITGGGSYTWYPDSVKGRFTISRDNAKNSLYLQMNSLRAEDTAVYYCARLTGYDQAGAMDYWGQGTTVTVSSASTKGPSVFPLAPSSKSTSGGTAALGCLVKDYFPEPVTVSWNSGALTSGVHTFPAVLQSSGLYSLSSVVTVPSSSLGTQTYICNVNHKPSNTKVDKKVEPKSCEVQLVQSGAEVKKPGASVKVSCKASGYTFTDYYMNWVRQAPGQCLEWIGDINPNQGGTNYNQKFKGRATLTVDKSASTAYMELSSLRSEDTAVYYCASIIIVPNYFDYWGQGTTVTVSSGGGGSGGGGSGGGGSDIQMTQSPSSLSASVGDRVTITCKASQNVDTNVAWFQQKPGKAPKSLIYSASYRYSGVPSRFSGSGSGTDFTLTISSLQPEDFATYYCQQYNNYPYTFGCGTKVEIKGGGDKTHTCPPCPAPELLGGPSVFLFPPKPKDTLYITREPEVTCVVVDVSHEDPEVKFNWYVDGVEVHNAKTKPREEQYNSTYRVVSVLTVLHQDWLNGKEYKCKVSNKALPAPIEKTISKAKGQPREPQVYTLPPSRDELTKNQVSLTCLVKGFYPSDIAVEWESNGQPENNYKTTPPVLDSDGSFFLYSKLTVDKSRWQQGNVFSCSVMHEALHNHYTQKSLSLSPGK
light: DIVLTQSPDSLAVSLGERATINCKASQSVDYDGDSYMTWYQQKPGQPPKLLIYAASHLDSGIPDRFSGSGSGTDFTLTISSLQAEDVAVYYCQQSNEDPWTFGGGTKVEIKRTVAAPSVFIFPPSDEQLKSGTASVVCLLNNFYPREAKVQWKVDNALQSGNSQESVTEQDSKDSTYSLSSTLTLSKADYEKHKVYACEVTHQGLSSPVTKSFNRGEC
notes: Format 2+2, anti-PACAP Fab (P14H2L3) and anti-CGRP scFv (C21H5L3), IgG1 (YTE) Fc; also called Biotin-CP-1
IC50, inhibition of cAMP production in SK-N-MC cells (CGRP): 2.66 nM
IC50, inhibition of cAMP production in SH-SY5Y cells (PACAP38 [7]): 4.31 nM
EC50 (PACAP38 [8]): 0.15 nM
EC50 (PACAP27 [9]): 0.28 nM
Kd (rat CGRP): 0.778 nM
koff (rat CGRP): 0.00116 s⁻¹
kon (rat CGRP): 1.5e+06 M⁻¹ s⁻¹
Kd (human CGRP): 0.00715 nM
koff (human CGRP): 1.77e-05 s⁻¹
kon (human CGRP): 2.48e+06 M⁻¹ s⁻¹

B5: CP-3 (bispecific antibody, human IgG1, kappa)
heavy 1: EVQLVESGGGLVQPGGSLRLSCAASGFAFNNYDMSWVRQAPGKGLEWVATITGGGSYTWYPDSVKGRFTISRDNAKNSLYLQMNSLRAEDTAVYYCARLTGYDQAGAMDYWGQGTTVTVSSASTKGPSVFPLAPSSKSTSGGTAALGCLVKDYFPEPVTVSWNSGALTSGVHTFPAVLQSSGLYSLSSVVTVPSSSLGTQTYICNVNHKPSNTKVDKKVEPKSCDKTHTCPPCPAPELLGGPSVFLFPPKPKDTLYITREPEVTCVVVDVSHEDPEVKFNWYVDGVEVHNAKTKPREEQYNSTYRVVSVLTVLHQDWLNGKEYKCKVSNKALPAPIEKTISKAKGQPREPQVYTLPPCRDELTKNQVSLWCLVKGFYPSDIAVEWESNGQPENNYKTTPPVLDSDGSFFLYSKLTVDKSRWQQGNVFSCSVMHEALHNHYTQKSLSLSPGK
light 1: B4 light
heavy 2: EVQLVQSGAEVKKPGASVKVSCKASGYTFTDYYMNWVRQAPGQRLEWMGDINPNTGVTTYNQKFKGRVTITVDKSASTAYMELSSLRSEDTAVYYCASIIIVPDYFDYWGQGTTVTVSSGGGGSGIPPKIECLPIDISIDEGKVLTVASAFTGEPTPEVTWSTGGRKIHSQEQGRFHIENTDDSTTLTIKDVQKQDGGLYTLTLRNEFGSDSATVNIHIRSIDKTHTCPPCPAPELLGGPSVFLFPPKPKDTLYITREPEVTCVVVDVSHEDPEVKFNWYVDGVEVHNAKTKPREEQYNSTYRVVSVLTVLHQDWLNGKEYKCKVSNKALPAPIEKTISKAKGQPREPQVCTLPPSRDELTKNQVSLSCAVKGFYPSDIAVEWESNGQPENNYKTTPPVLDSDGSFFLVSKLTVDKSRWQQGNVFSCSVMHEALHNHYTQKSLSLSPGK
light 2: DIQMTQSPSSVSASVGDRVTITCKASQNVGSNVAWYQQKPGKSPKALIYSASYRYSGVPSRFSGSGSGTDFTLTISSLQPEDFATYYCQQYNSYPYTFGGGTKVEIKGGGGSSGAPRFLTRPKASVVSVGKDATLSCQIVGNPFPQVSWEKDKQPVTAGVRFRLAQDGDLYRLKILDLQLSDSGQYVCRARNAHGEAFACLGLQVDAEA
notes: Format 1+1, anti-PACAP Fab (P14H2L3) and anti-CGRP Titin/Obscurin Fab (C28H6L1), knob-into-hole IgG1 (YTE) Fc; also called Biotin-CP-3
IC50, inhibition of cAMP production in SK-N-MC cells (CGRP): 5.79 nM
IC50, inhibition of cAMP production in SH-SY5Y cells (PACAP38 [7]): 11 nM
EC50 (PACAP38 [8]): 0.22 nM
EC50 (PACAP27 [9]): 0.33 nM
Kd (rat CGRP): 0.0897 nM
koff (rat CGRP): 0.000301 s⁻¹
kon (rat CGRP): 3.35e+06 M⁻¹ s⁻¹
Kd (human CGRP): 0.00764 nM
koff (human CGRP): 3.31e-05 s⁻¹
kon (human CGRP): 4.34e+06 M⁻¹ s⁻¹

More lines, now with the values ahead:

IC50, inhibition of cAMP production in SH-SY5Y cells (PACAP38 [1]): 1.46 nM
binding result (VIP): no binding
EC50 (PACAP38 [2]): 0.09 nM
EC50 (PACAP27 [3]): 0.14 nM
IC50 (PACAP38 [4]): 0.48 nM
IC50 (PACAP38 [5]): 0.27 nM
IC50 (PACAP38 [6]): 0.23 nM
B3: P14#-CHI (antibody, human IgG1, kappa, V domains shown)
VH: DVKLVESGGGLVKPGGSLKVSCAASGFAFNNYDMSWVRQTPEKRLDWVATITGGGSYTWYPDSVKGRFTISRDNARNTLFLQMSSLRSEDTALYYCARLNGYDQAGAMDYWGQGTSVTVSS
VL: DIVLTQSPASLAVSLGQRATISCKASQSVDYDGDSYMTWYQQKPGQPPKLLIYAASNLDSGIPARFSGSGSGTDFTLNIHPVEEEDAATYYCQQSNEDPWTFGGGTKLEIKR
notes: chimeric: murine variable regions fused to human constant regions; also called P14#-CH1

IC50, inhibition of cAMP production in SK-N-MC cells (CGRP): 2.03 nM
IC50, inhibition of cAMP production in SH-SY5Y cells (PACAP38 [7]): 1.92 nM
EC50 (PACAP38 [8]): 0.1 nM
EC50 (PACAP27 [9]): 0.16 nM
Kd (rat CGRP): 0.358 nM
koff (rat CGRP): 0.000743 s⁻¹
kon (rat CGRP): 2.07e+06 M⁻¹ s⁻¹
Kd (human CGRP): 0.0117 nM
koff (human CGRP): 2.35e-05 s⁻¹
kon (human CGRP): 2e+06 M⁻¹ s⁻¹
B6: CP-2 (bispecific antibody)
heavy: EVQLVESGGGLVQPGGSLRLSCAASGFAFNNYDMSWVRQAPGKGLEWVATITGGGSYTWYPDSVKGRFTISRDNAKNSLYLQMNSLRAEDTAVYYCARLTGYDQAGAMDYWGQGTTVTVSSASTKGPSVFPLAPSSKSTSGGTAALGCLVKDYFPEPVTVSWNSGALTSGVHTFPAVLQSSGLYSLSSVVTVPSSSLGTQTYICNVNHKPSNTKVDKKVEPKSCEVQLVQSGAEVKKPGASVKVSCKASGYTFTDYYMNWVRQAPGQCLEWMGDINPNTGVTTYNQKFKGRVTITVDKSASTAYMELSSLRSEDTAVYYCASIIIVPDYFDYWGQGTTVTVSSGGGGSGGGGSGGGGSDIQMTQSPSSVSASVGDRVTITCKASQNVGSNVAWYQQKPGKSPKALIYSASYRYSGVPSRFSGSGSGTDFTLTISSLQPEDFATYYCQQYNSYPYTFGCGTKVEIKGGGDKTHTCPPCPAPELLGGPSVFLFPPKPKDTLYITREPEVTCVVVDVSHEDPEVKFNWYVDGVEVHNAKTKPREEQYNSTYRVVSVLTVLHQDWLNGKEYKCKVSNKALPAPIEKTISKAKGQPREPQVYTLPPSRDELTKNQVSLTCLVKGFYPSDIAVEWESNGQPENNYKTTPPVLDSDGSFFLYSKLTVDKSRWQQGNVFSCSVMHEALHNHYTQKSLSLSPGK
light: B4 light
notes: Format 2+2, anti-PACAP Fab (P14H2L3) and anti-CGRP scFv (C28H8L2), IgG1 (YTE) Fc; also called Biotin-CP-2
